Assay results reported in patent EP4772193A1 (Teijin Pharma Limited, dated 2026).
Changes are numbered by the printed parent chain. Names and notes keep the numbering of the source. Blank lines part the entries; values can stand above or below the binder they belong to.

How the values were obtained:
[1] = molecular target: T1, human gpNMB (Human Osteoactivin, His-tag, AcroBioSystems) (human, UniProt Q14956-2 23-486, limits assumed); experiment: SPR Biacore 8K, antibody captured on protein A, gpNMB as analyte
T1 sequence (looked up): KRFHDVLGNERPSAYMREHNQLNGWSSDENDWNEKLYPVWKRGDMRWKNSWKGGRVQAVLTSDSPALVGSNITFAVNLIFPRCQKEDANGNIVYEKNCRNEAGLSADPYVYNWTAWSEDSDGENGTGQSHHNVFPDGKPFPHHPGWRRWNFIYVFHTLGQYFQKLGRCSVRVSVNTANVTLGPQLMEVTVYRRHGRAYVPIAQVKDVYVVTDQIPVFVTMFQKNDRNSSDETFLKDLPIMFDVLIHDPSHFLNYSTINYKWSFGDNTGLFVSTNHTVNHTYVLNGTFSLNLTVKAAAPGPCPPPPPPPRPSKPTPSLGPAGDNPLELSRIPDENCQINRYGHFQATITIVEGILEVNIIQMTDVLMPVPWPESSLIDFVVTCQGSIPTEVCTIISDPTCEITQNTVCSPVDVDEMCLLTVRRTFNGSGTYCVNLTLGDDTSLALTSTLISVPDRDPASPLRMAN

[2] = molecular target: T2, recombinant human soluble gpNMB (recombinant human gpNMB-FLAG-His) (human, UniProt Q14956 23-498); experiment: antigen ELISA
T2 sequence: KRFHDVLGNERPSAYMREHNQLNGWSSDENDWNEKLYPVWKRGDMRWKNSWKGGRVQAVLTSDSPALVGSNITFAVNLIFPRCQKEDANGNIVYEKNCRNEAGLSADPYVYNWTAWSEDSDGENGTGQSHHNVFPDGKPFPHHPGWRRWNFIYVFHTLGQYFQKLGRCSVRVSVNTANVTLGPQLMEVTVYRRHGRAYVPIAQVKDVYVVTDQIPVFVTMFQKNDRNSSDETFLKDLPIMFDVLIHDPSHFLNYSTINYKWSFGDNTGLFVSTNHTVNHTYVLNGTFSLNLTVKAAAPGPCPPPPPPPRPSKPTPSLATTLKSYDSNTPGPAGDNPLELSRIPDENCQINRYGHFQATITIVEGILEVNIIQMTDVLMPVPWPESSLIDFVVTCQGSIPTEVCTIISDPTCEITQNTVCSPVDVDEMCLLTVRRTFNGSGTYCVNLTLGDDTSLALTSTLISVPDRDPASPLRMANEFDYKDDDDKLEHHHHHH

[3] = molecular target: T2, recombinant human soluble gpNMB …; experiment: antigen ELISA, vs hGPN18-2_H2L3

B1: hGPN18-5_H2L2 (antibody, V domains shown)
VH: QVQLVQSGAEVKKPGASVKVSCKASGYTFTTYWMNWVRQAPGQGLEWIGAINPSNDYTEYNQKFKDRATMTADTSTSTVYMELSSLRSEDTAVYYCGRSYSPDYWGQGTTVTVSS
VL: DIQMTQSPSSLSASVGDRVTITCKASQNVDNHVAWFQQKPGKAPKALIYSASYRYSGVPDRFSGSGSGTDFTLTISSLQPEDFATYFCQQYKSYPFTFGGGTKLEIK
notes: humanized; also called hGPN18-5_VH2+VL2
Kd [1]: 763 nM
koff [1]: 0.00403 s⁻¹
kon [1]: 5280 M⁻¹ s⁻¹

B2: hGPN18-5_H1L2 (antibody, V domains shown)
VH: B1 VH with A68V
VL: B1 VL
notes: humanized; also called hGPN18-5_VH1+VL2
Kd [1]: 423 nM
koff [1]: 0.00396 s⁻¹
kon [1]: 9380 M⁻¹ s⁻¹

B3: hGPN18-5_H1L3 (antibody, V domains shown)
VH: B1 VH with A68V
VL: B1 VL with F36H, S63T, T85D
notes: humanized; also called hGPN18-5_VH1+VL3; GPN18-5-VH1+VL3
Kd [1]: 214 nM
koff [1]: 0.00153 s⁻¹
kon [1]: 7150 M⁻¹ s⁻¹

B4: hGPN18-2_H2L3 VL F94A (antibody, V domains shown)
VH: QVQLVQSGPGLVQPTQTLTLTCSFSGFSLSTSVMGVGWIRQPSGKGLEWLADIWWDDDKDYNPSLKSRLTISKDTSKNQVVLTMTNMDTVDTATYYCARTYYSNYEYYGMDYWGQGTLVTVSS
VL: DIVMTQSPDSLAVSLGERATINCRSSQTIILSNGNTYLEWYQQKPGQPPKLLIYKVSNRFSGVPDRFSGSGSGTDFTLTISSLQAEDVAVYYCAQGSHVPFTFGSGTKLEIKR
EC50 [2]: 18 nM
Relative binding activity [3]: 0.07

B10: hGPN18-2_H2L3 VL S32A (antibody, V domains shown)
VH: B4 VH
VL: B4 VL with S32A, A94F
EC50 [2]: 8.67 nM
Relative binding activity [3]: 0.92

B11: hGPN18-2_H2L3 VL K55A (antibody, V domains shown)
VH: B4 VH
VL: B4 VL with K55A, A94F
EC50 [2]: 48.3 nM
Relative binding activity [3]: 0.31

B15: hGPN18-2_H2L3 VL V99A (antibody, V domains shown)
VH: B4 VH
VL: B4 VL with A94F, V99A
EC50 [2]: 9.93 nM
Relative binding activity [3]: 0.81

B16: hGPN18-2_H2L3 VL T36A (antibody, V domains shown)
VH: B4 VH
VL: B4 VL with T36A, A94F
EC50 [2]: 4.74 nM
Relative binding activity [3]: 1.06

B17: hGPN18-2_H2L3 VL F101A (antibody, V domains shown)
VH: B4 VH
VL: B4 VL with A94F, F101A
EC50 [2]: 7.66 nM
Relative binding activity [3]: 0.69

B19: hGPN18-2_H2L3 VL Y37A (antibody, V domains shown)
VH: B4 VH
VL: B4 VL with Y37A, A94F
EC50 [2]: 27.1 nM
Relative binding activity [3]: 0.37

B20: hGPN18-2_H2L3 VL L31A (antibody, V domains shown)
VH: B4 VH
VL: B4 VL with L31A, A94F
EC50 [2]: 20.7 nM
Relative binding activity [3]: 0.41

B21: hGPN18-2_H2L3 VL G96A (antibody, V domains shown)
VH: B4 VH
VL: B4 VL with A94F, G96A
EC50 [2]: 10.8 nM
Relative binding activity [3]: 0.91

B23: hGPN18-2_H2L3 VL I29A (antibody, V domains shown)
VH: B4 VH
VL: B4 VL with I29A, A94F
EC50 [2]: 6.04 nM
Relative binding activity [3]: 0.75

B25: hGPN18-2_H2L3 VL H98A (antibody, V domains shown)
VH: B4 VH
VL: B4 VL with A94F, H98A
EC50 [2]: 5.69 nM
Relative binding activity [3]: 0.8

B29: hGPN18-2_H2L3 VL Q95A (antibody, V domains shown)
VH: B4 VH
VL: B4 VL with A94F, Q95A
EC50 [2]: 5.49 nM
Relative binding activity [3]: 0.79

Now from value to binder:

EC50 [2]: 4.22 nM
Relative binding activity [3]: 0.84
B5: hGPN18-2_H2L3 VL P100A (antibody, V domains shown)
VH: B4 VH
VL: B4 VL with A94F, P100A

EC50 [2]: 2.36 nM
Relative binding activity [3]: 1.11
B6: hGPN18-2_H2L3 VL R59A (antibody, V domains shown)
VH: B4 VH
VL: B4 VL with R59A, A94F

EC50 [2]: 4 nM
Relative binding activity [3]: 1.04
B7: hGPN18-2_H2L3 VL Q27A (antibody, V domains shown)
VH: B4 VH
VL: B4 VL with Q27A, A94F

EC50 [2]: 4.15 nM
Relative binding activity [3]: 1.06
B8: hGPN18-2_H2L3 VL L38A (antibody, V domains shown)
VH: B4 VH
VL: B4 VL with L38A, A94F

EC50 [2]: 4.73 nM
Relative binding activity [3]: 0.81
B9: hGPN18-2_H2L3 VL T102A (antibody, V domains shown)
VH: B4 VH
VL: B4 VL with A94F, T102A

EC50 [2]: 3.94 nM
Relative binding activity [3]: 1
B12: hGPN18-2_H2L3 VL G34A (antibody, V domains shown)
VH: B4 VH
VL: B4 VL with G34A, A94F

EC50 [2]: 3.66 nM
Relative binding activity [3]: 0.82
B13: hGPN18-2_H2L3 VL N33A (antibody, V domains shown)
VH: B4 VH
VL: B4 VL with N33A, A94F

EC50 [2]: 4.1 nM
Relative binding activity [3]: 1
B14: hGPN18-2_H2L3 VL I30A (antibody, V domains shown)
VH: B4 VH
VL: B4 VL with I30A, A94F

EC50 [2]: 2.99 nM
Relative binding activity [3]: 1.07
B18: hGPN18-2_H2L3 VL V56A (antibody, V domains shown)
VH: B4 VH
VL: B4 VL with V56A, A94F

EC50 [2]: 3.76 nM
Relative binding activity [3]: 1.01
B22: hGPN18-2_H2L3 VL S25A (antibody, V domains shown)
VH: B4 VH
VL: B4 VL with S25A, A94F

EC50 [2]: 3.08 nM
Relative binding activity [3]: 1.11
B24: hGPN18-2_H2L3 VL N35A (antibody, V domains shown)
VH: B4 VH
VL: B4 VL with N35A, A94F

EC50 [2]: 3.14 nM
Relative binding activity [3]: 1.05
B26: hGPN18-2_H2L3 VL S57A (antibody, V domains shown)
VH: B4 VH
VL: B4 VL with S57A, A94F

EC50 [2]: 3.14 nM
Relative binding activity [3]: 1.03
B27: hGPN18-2_H2L3 VL S26A (antibody, V domains shown)
VH: B4 VH
VL: B4 VL with S26A, A94F

EC50 [2]: 2.86 nM
Relative binding activity [3]: 1.04
B28: hGPN18-2_H2L3 VL N58A (antibody, V domains shown)
VH: B4 VH
VL: B4 VL with N58A, A94F

EC50 [2]: 3.29 nM
Relative binding activity [3]: 1.04
B30: hGPN18-2_H2L3 VL S97A (antibody, V domains shown)
VH: B4 VH
VL: B4 VL with A94F, S97A

EC50 [2]: 3.63 nM
Relative binding activity [3]: 0.94
B31: hGPN18-2_H2L3 VL S61A (antibody, V domains shown)
VH: B4 VH
VL: B4 VL with S61A, A94F

EC50 [2]: 4.73 nM
Relative binding activity [3]: 1.04
B32: hGPN18-2_H2L3 VL R24A (antibody, V domains shown)
VH: B4 VH
VL: B4 VL with R24A, A94F

EC50 [2]: 2.91 nM
Relative binding activity [3]: 1.05
B33: hGPN18-2_H2L3 VL T28A (antibody, V domains shown)
VH: B4 VH
VL: B4 VL with T28A, A94F
